Patent EP4595979A1 (SystImmune, Inc., dated 2024)

T1: Trop2 (human, UniProt P09758 27-323)
T1 sequence (looked up): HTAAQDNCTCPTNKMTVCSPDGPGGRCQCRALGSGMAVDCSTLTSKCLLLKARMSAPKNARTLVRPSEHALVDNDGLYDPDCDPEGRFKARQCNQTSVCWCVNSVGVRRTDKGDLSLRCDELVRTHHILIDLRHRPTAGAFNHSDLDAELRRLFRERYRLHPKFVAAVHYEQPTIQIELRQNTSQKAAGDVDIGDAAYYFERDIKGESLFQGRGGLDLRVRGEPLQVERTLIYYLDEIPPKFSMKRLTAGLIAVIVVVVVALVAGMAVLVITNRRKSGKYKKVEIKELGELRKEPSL


Biological target: T1, Trop2
Test: cell-based or functional assay

| Binder | IC50 (nM), in vitro cytotoxicity (120h), MTS cell viability, A431 cells (Trop2 positive) | IC50 (nM), in vitro cytotoxicity (120h), MTS cell viability, BxPC-3 cells (Trop2 positive) | IC50 (nM), in vitro cytotoxicity (120h), MTS cell viability, NCI-N87 cells (Trop2 positive) |
| --- | --- | --- | --- |
| ADC-1-2a (antibody, human IgG1, kappa, DAR 1.79, linker-payload LP-1a conjugated site-specifically after partial reduction (general step B), average DAR 1.79; chain and residue not stated) heavy: not shown light: DIQMTQSPSSLSASVGDRVTITCRASQDINKYLAWYQQKPGKVPKLLIYSTSTLQSGVPSRFSGSGSGTDFTLTISSLQPEDVATYYCLQYDDLFTFGQGTKLEIKRTVAAPSVFIFPPSDEQLKSGTASVVCLLNNFYPREAKVQWKVDNALQSGNSQESVTEQDSKDSTYSLSSTLTLSKADYEKHKVYACEVTHQGLSSPVCTKSFNRGEC | 0.05 nM | 0.25 nM | 2.6 nM |
| ADC-C-2a (antibody, human IgG1, kappa, DAR 1.85, VcMMAE conjugated site-specifically after partial reduction (general step B), average DAR 1.85; chain and residue not stated) heavy: not shown light: DIQMTQSPSSLSASVGDRVTITCRASQDINKYLAWYQQKPGKVPKLLIYSTSTLQSGVPSRFSGSGSGTDFTLTISSLQPEDVATYYCLQYDDLFTFGQGTKLEIKRTVAAPSVFIFPPSDEQLKSGTASVVCLLNNFYPREAKVQWKVDNALQSGNSQESVTEQDSKDSTYSLSSTLTLSKADYEKHKVYACEVTHQGLSSPVCTKSFNRGEC | 0.32 nM | 0.87 nM | 4.9 nM |
| ADC-2-2a (antibody, human IgG1, kappa, DAR 1.81, linker-payload LP-2a conjugated site-specifically after partial reduction (general step B), average DAR 1.81; chain and residue not stated) heavy: not shown light: DIQMTQSPSSLSASVGDRVTITCRASQDINKYLAWYQQKPGKVPKLLIYSTSTLQSGVPSRFSGSGSGTDFTLTISSLQPEDVATYYCLQYDDLFTFGQGTKLEIKRTVAAPSVFIFPPSDEQLKSGTASVVCLLNNFYPREAKVQWKVDNALQSGNSQESVTEQDSKDSTYSLSSTLTLSKADYEKHKVYACEVTHQGLSSPVCTKSFNRGEC | 0.11 nM | 0.46 nM | 4.7 nM |
| ADC-1-1a (antibody, human IgG1, kappa, DAR 7.59, linker-payload LP-1a on a cysteine thiol of the reduced interchain disulfide (general step A); residue not stated; linker-payload LP-1a (auristatin E derivative) on cysteine thiols of the fully reduced interchain disulfides (general step A); residues not stated; average DAR 7.59) heavy: not shown light: DIQMTQSPSSLSASVGDRVTITCRASQDINKYLAWYQQKPGKVPKLLIYSTSTLQSGVPSRFSGSGSGTDFTLTISSLQPEDVATYYCLQYDDLFTFGQGTKLEIKRTVAAPSVFIFPPSDEQLKSGTASVVCLLNNFYPREAKVQWKVDNALQSGNSQESVTEQDSKDSTYSLSSTLTLSKADYEKHKVYACEVTHQGLSSPVTKSFNRGEC | 0.01 nM | 0.02 nM | 0.36 nM |
| ADC-C-1a (antibody, human IgG1, kappa, DAR 7.34, VcMMAE on a cysteine thiol of the reduced interchain disulfide (general step A); residue not stated; VcMMAE (MC-VC-PAB-MMAE) on cysteine thiols of the fully reduced interchain disulfides (general step A); residues not stated; average DAR 7.34) heavy: not shown light: DIQMTQSPSSLSASVGDRVTITCRASQDINKYLAWYQQKPGKVPKLLIYSTSTLQSGVPSRFSGSGSGTDFTLTISSLQPEDVATYYCLQYDDLFTFGQGTKLEIKRTVAAPSVFIFPPSDEQLKSGTASVVCLLNNFYPREAKVQWKVDNALQSGNSQESVTEQDSKDSTYSLSSTLTLSKADYEKHKVYACEVTHQGLSSPVTKSFNRGEC | 0.02 nM | 0.04 nM | 0.63 nM |
| ADC-2-1a (antibody, human IgG1, kappa, DAR 7.31, one linker-payload LP-2a on each light chain, maleimide partly ring-opened; residue not stated; linker-payload LP-2a (MMAE derivative) on cysteine thiols of the fully reduced interchain disulfides (general step A); residues not stated; average DAR 7.31) heavy: not shown light: DIQMTQSPSSLSASVGDRVTITCRASQDINKYLAWYQQKPGKVPKLLIYSTSTLQSGVPSRFSGSGSGTDFTLTISSLQPEDVATYYCLQYDDLFTFGQGTKLEIKRTVAAPSVFIFPPSDEQLKSGTASVVCLLNNFYPREAKVQWKVDNALQSGNSQESVTEQDSKDSTYSLSSTLTLSKADYEKHKVYACEVTHQGLSSPVTKSFNRGEC | 0.005 nM | 0.02 nM | 0.35 nM |
